# Changes are numbered by the printed parent chain. Names and notes keep the numbering of the source.
# B1: target 2 MT 5'PFS AAA 3'PFS AGC (mixed)
# RNA 1: CACCCGUGCAAAAUUGCAGGGGUCUAAAACCUUCUCCAAAUUGUUUCAUCCU
# RNA 2: GGGAAUGGAUCCACAUCUACGAAUUCAAAAGGAUGAAACAAUUUGGAGAAGAGCAGAUCGGAAGAGCACACGU
# B2: target 2 MT 5'PFS GCU 3'PFS CCA (mixed)
# RNA 1: B1 RNA 1
# RNA 2: B1 RNA 2 with A27G, A28C, A29U, A52C, G53C, C54A
# B3: target 2 MT 5'PFS GGC 3'PFS AAA (mixed)
# RNA 1: B1 RNA 1
# RNA 2: B1 RNA 2 with A27G, A28G, A29C, G53A, C54A
# B4: target 2 MT 5'PFS UGA 3'PFS UUA (mixed)
# RNA 1: B1 RNA 1
# RNA 2: B1 RNA 2 with A27U, A28G, A52U, G53U, C54A
# B5: target 2 MT 5'PFS UUU 3'PFS CAC (mixed)
# RNA 1: B1 RNA 1
# RNA 2: B1 RNA 2 with A27U, A28U, A29U, A52C, G53A
# B6: target 2 MT 5'PFS GUA 3'PFS UAA (mixed)
# RNA 1: B1 RNA 1
# RNA 2: B1 RNA 2 with A27G, A28U, A52U, G53A, C54A
# B7: target 2 MT 5'PFS CUU 3'PFS AUC (mixed)
# RNA 1: B1 RNA 1
# RNA 2: B1 RNA 2 with A27C, A28U, A29U, G53U
# B8: target 2 MT 5'PFS GUA 3'PFS UAC (mixed)
# RNA 1: B1 RNA 1
# RNA 2: B1 RNA 2 with A27G, A28U, A52U, G53A
# B9: target 2 MT 5'PFS UUU 3'PFS CAA (mixed)
# RNA 1: B1 RNA 1
# RNA 2: B1 RNA 2 with A27U, A28U, A29U, A52C, G53A, C54A
# B10: target 2 MT 5'PFS GUA 3'PFS UAG (mixed)
# RNA 1: B1 RNA 1
# RNA 2: B1 RNA 2 with A27G, A28U, A52U, G53A, C54G
# B11: target 2 MT 5'PFS GCU 3'PFS AGA (mixed)
# RNA 1: B1 RNA 1
# RNA 2: B1 RNA 2 with A27G, A28C, A29U, C54A
# B12: target 2 MT 5'PFS UCU 3'PFS AGC (mixed)
# RNA 1: B1 RNA 1
# RNA 2: B1 RNA 2 with A27U, A28C, A29U
# B13: target 2 MT 5'PFS GUA 3'PFS GAC (mixed)
# RNA 1: B1 RNA 1
# RNA 2: B1 RNA 2 with A27G, A28U, A52G, G53A
# B14: target 2 MT 5'PFS ACU 3'PFS UCC (mixed)
# RNA 1: B1 RNA 1
# RNA 2: B1 RNA 2 with A28C, A29U, A52U, G53C
# B15: target 2 MT 5'PFS GGC 3'PFS AAG (mixed)
# RNA 1: B1 RNA 1
# RNA 2: B1 RNA 2 with A27G, A28G, A29C, G53A, C54G
# B16: target 2 MT 5'PFS UGA 3'PFS UUC (mixed)
# RNA 1: B1 RNA 1
# RNA 2: B1 RNA 2 with A27U, A28G, A52U, G53U
# B17: target 2 MT 5'PFS UUU 3'PFS CAU (mixed)
# RNA 1: B1 RNA 1
# RNA 2: B1 RNA 2 with A27U, A28U, A29U, A52C, G53A, C54U
# B18: target 2 MT 5'PFS UAC 3'PFS UUA (mixed)
# RNA 1: B1 RNA 1
# RNA 2: B1 RNA 2 with A27U, A29C, A52U, G53U, C54A
# B19: target 2 MT 5'PFS AAG 3'PFS UAA (mixed)
# RNA 1: B1 RNA 1
# RNA 2: B1 RNA 2 with A29G, A52U, G53A, C54A
# B20: target 2 MT 5'PFS AAC 3'PFS CGC (mixed)
# RNA 1: B1 RNA 1
# RNA 2: B1 RNA 2 with A29C, A52C
# B21: target 2 MT 5'PFS AGG 3'PFS CGA (mixed)
# RNA 1: B1 RNA 1
# RNA 2: B1 RNA 2 with A28G, A29G, A52C, C54A
# B22: target 2 MT 5'PFS GGC 3'PFS AAC (mixed)
# RNA 1: B1 RNA 1
# RNA 2: B1 RNA 2 with A27G, A28G, A29C, G53A
# B23: target 2 MT 5'PFS UAC 3'PFS UUU (mixed)
# RNA 1: B1 RNA 1
# RNA 2: B1 RNA 2 with A27U, A29C, A52U, G53U, C54U
# B24: target 2 MT 5'PFS ACU 3'PFS UCG (mixed)
# RNA 1: B1 RNA 1
# RNA 2: B1 RNA 2 with A28C, A29U, A52U, G53C, C54G
# B25: target 2 MT 5'PFS UAC 3'PFS UUG (mixed)
# RNA 1: B1 RNA 1
# RNA 2: B1 RNA 2 with A27U, A29C, A52U, G53U, C54G
# B26: target 2 MT 5'PFS AAC 3'PFS CGG (mixed)
# RNA 1: B1 RNA 1
# RNA 2: B1 RNA 2 with A29C, A52C, C54G
# B27: target 2 MT 5'PFS AGG 3'PFS AUU (mixed)
# RNA 1: B1 RNA 1
# RNA 2: B1 RNA 2 with A28G, A29G, G53U, C54U
# B28: target 2 MT 5'PFS UUG 3'PFS UUA (mixed)
# RNA 1: B1 RNA 1
# RNA 2: B1 RNA 2 with A27U, A28U, A29G, A52U, G53U, C54A
# B29: target 2 MT 5'PFS GGC 3'PFS AAU (mixed)
# RNA 1: B1 RNA 1
# RNA 2: B1 RNA 2 with A27G, A28G, A29C, G53A, C54U
# B30: target 2 MT 5'PFS UUU 3'PFS CAG (mixed)
# RNA 1: B1 RNA 1
# RNA 2: B1 RNA 2 with A27U, A28U, A29U, A52C, G53A, C54G
# B31: target 2 MT 5'PFS GCU 3'PFS AGG (mixed)
# RNA 1: B1 RNA 1
# RNA 2: B1 RNA 2 with A27G, A28C, A29U, C54G
# B32: target 2 MT 5'PFS AAG 3'PFS UAU (mixed)
# RNA 1: B1 RNA 1
# RNA 2: B1 RNA 2 with A29G, A52U, G53A, C54U
# B33: target 2 MT 5'PFS GUA 3'PFS GAA (mixed)
# RNA 1: B1 RNA 1
# RNA 2: B1 RNA 2 with A27G, A28U, A52G, G53A, C54A
# B34: target 2 MT 5'PFS ACU 3'PFS UCA (mixed)
# RNA 1: B1 RNA 1
# RNA 2: B1 RNA 2 with A28C, A29U, A52U, G53C, C54A
# B35: target 1 C4G,C7U (mixed)
# RNA 1: CACCCGUGCAAAAAUGCAGGGGUCUAAAACUGAGCGGAUAACCUCUCUAUGG
# RNA 2: GGGAAUGGAUCCACAUCUACGAAUUCGUACCAUAGAGAGGUUAUUCGGUCACCGAGAUCGGAAGAGCACACGU
# B36: target 1 A1G,A14G (mixed)
# RNA 1: B35 RNA 1
# RNA 2: B35 RNA 2 with A38G, U45C, G48C, A51G
# B37: target 1 insA 3' of 8,insU 3' of 2 (mixed)
# RNA 1: B35 RNA 1
# RNA 2: GGGAAUGGAUCCACAUCUACGAAUUCGUACCAUAGAGAGGUUAUACCGCUCUACCGAGAUCGGAAGAGCACACGU
# B38: target 1 insA 3' of 17 (mixed)
# RNA 1: B35 RNA 1
# RNA 2: GGGAAUGGAUCCACAUCUACGAAUUCGUACCAUAGAAGAGGUUAUCCGCUCACCGAGAUCGGAAGAGCACACGU
# Target: T1, EsCas13d, nuclease-dead (Eubacterium siraeum, UniProt B0MS50, R295A;H300A;R849A;H854A)
# T1 sequence: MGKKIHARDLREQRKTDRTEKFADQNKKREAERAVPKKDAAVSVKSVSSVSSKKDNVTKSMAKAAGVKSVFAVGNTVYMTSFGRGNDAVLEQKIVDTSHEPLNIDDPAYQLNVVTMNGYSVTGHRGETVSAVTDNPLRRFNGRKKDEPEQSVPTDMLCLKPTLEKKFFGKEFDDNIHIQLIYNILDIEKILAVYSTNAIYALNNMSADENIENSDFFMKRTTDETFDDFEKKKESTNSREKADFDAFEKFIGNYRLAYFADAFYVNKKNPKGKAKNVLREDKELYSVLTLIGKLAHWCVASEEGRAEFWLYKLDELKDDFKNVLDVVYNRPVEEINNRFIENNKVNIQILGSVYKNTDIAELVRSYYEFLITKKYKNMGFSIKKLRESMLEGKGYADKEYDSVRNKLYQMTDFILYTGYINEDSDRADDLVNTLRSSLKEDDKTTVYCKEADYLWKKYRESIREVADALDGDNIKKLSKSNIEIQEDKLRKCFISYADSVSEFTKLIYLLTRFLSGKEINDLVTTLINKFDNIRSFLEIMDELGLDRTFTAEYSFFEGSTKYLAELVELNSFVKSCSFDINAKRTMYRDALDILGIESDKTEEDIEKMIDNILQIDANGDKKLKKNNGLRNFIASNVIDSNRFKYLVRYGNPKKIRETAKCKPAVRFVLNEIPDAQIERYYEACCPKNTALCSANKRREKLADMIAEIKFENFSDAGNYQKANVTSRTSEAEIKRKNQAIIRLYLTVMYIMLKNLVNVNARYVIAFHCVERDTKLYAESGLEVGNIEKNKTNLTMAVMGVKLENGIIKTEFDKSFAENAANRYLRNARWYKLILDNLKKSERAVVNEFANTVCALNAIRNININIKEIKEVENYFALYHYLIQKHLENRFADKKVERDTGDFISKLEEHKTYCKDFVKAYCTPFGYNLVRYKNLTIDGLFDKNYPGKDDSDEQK
# Experiment: crRNA (strand 1, pre-loaded); Mg2+; 40 mM Tris-HCl pH 7.5, 150 mM NaCl, 6 mM MgCl2, 1 mM DTT, 0.1% Tween-20, 0.2 mg/ml BSA; 25 C; 10 min per concentration, then washed
# Conditions: tags: His6-TwinStrep-SUMO cleaved; N-terminal SNAP kept (SNAP-Surface 488); label: 3' end held by stalled T7 RNA polymerase
row,Binder,Kd [nM]
1,B1,4.2 ± 1.5
2,B2,25 ± 12
3,B3,8.9 ± 1.5
4,B4,10.7 ± 1.9
5,B5,7.5 ± 1
6,B6,5.5 ± 0.6
7,B7,5.1 ± 0.9
8,B8,7.7 ± 0.7
9,B9,7.6 ± 1
10,B10,11 ± 1.8
11,B11,7.3 ± 2.1
12,B12,11 ± 2.3
13,B13,7.9 ± 1.4
14,B14,14.3 ± 3.5
15,B15,13.1 ± 2
16,B16,26 ± 7
17,B17,6.8 ± 0.8
18,B18,11.1 ± 2.3
19,B19,3.7 ± 0.7

row,Binder,Kd [nM]
1,B20,4.7 ± 1.1
2,B21,4.5 ± 0.5
3,B22,11.7 ± 1.4
4,B23,11.9 ± 1.9
5,B24,6.7 ± 1
6,B25,8 ± 1.4
7,B26,3.2 ± 0.5
8,B27,4.8 ± 0.8
9,B28,29 ± 7
10,B29,8.5 ± 0.9
11,B30,5 ± 0.4
12,B31,7.9 ± 0.8
13,B32,3.6 ± 0.6
14,B33,6.7 ± 2.4
15,B34,7.3 ± 1.7
16,B35,3.78 ± 0.31
17,B36,14.3 ± 0.8
18,B37,22.5 ± 1.4
19,B38,11.8 ± 1.3
